Measurements from patent US20040209257.

Tested on: T1, AcuI restriction endonuclease (recombinant, clone #288) V1M (Acinetobacter calcoaceticus SRW4)
T1 sequence: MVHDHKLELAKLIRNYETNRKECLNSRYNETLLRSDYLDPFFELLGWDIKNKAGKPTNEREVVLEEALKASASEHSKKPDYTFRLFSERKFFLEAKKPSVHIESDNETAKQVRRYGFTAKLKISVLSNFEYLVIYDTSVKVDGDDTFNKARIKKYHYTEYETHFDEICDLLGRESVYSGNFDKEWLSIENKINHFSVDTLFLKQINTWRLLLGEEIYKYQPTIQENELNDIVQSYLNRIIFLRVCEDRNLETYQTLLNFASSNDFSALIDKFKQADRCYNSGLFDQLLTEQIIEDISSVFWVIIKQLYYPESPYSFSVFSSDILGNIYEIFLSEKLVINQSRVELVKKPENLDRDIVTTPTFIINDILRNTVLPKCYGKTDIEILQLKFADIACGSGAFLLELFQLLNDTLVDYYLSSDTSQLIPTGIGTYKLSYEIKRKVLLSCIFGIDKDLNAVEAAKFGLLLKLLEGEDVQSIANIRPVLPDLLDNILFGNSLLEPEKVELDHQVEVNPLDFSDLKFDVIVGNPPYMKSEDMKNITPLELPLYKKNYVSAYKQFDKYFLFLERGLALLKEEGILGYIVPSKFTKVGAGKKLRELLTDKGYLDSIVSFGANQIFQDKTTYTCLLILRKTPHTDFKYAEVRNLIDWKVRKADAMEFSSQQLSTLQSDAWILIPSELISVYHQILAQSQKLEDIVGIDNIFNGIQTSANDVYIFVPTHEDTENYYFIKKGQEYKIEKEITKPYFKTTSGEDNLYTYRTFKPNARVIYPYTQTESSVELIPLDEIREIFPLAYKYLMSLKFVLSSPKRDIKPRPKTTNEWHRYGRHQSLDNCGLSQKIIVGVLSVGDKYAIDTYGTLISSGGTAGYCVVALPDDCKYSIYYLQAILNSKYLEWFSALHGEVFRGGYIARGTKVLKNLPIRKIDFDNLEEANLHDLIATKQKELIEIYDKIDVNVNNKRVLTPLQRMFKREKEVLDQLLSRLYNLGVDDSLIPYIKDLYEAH
Assay: cleavage_in_vitro
Settings: cell extract; lambda DNA substrate

## lambda DNA
  activity (units per gram wet cells): 17400
